From doi:10.1101/2024.04.26.590571 (bioRxiv, 2024)

Target: the molecule itself
Assay: cryo-EM structure

B1: L-protein (BchL homodimer), electron donor component of Rhodobacter sphaeroides DPOR (enzyme)
chain: MSPKDLTIPTGADGEGSVQVHLDEADKITGAKVFAVYGKGGIGKSTTSSNLSAAFSILGKRVLQIGCDPKHDSTFTLTGSLVPTVIDVLKDVDFHPEELRPEDFVFEGFNGVMCVEAGGPPAGTGCGGYVVGQTVKLLKQHHLLDDTDVVIFDVLGDVVCGGFAAPLQHADQAVVVTANDFDSIYAMNRIIAAVQAKSKNYKVRLAGCVANRSRATDEVDRFCKETNFRRLAHMPDLDAIRRSRLKKKTLFEMDEDQDVLAARAEYIRLAESLWRGLDPIDPHSLPDRDIFELLGFD
For B1, the “stoichiometry N” value was 2.
